Sequences and labels used below:
T1: EsCas13d, nuclease-dead (Eubacterium siraeum, UniProt B0MS50, R295A;H300A;R849A;H854A)
T1 sequence: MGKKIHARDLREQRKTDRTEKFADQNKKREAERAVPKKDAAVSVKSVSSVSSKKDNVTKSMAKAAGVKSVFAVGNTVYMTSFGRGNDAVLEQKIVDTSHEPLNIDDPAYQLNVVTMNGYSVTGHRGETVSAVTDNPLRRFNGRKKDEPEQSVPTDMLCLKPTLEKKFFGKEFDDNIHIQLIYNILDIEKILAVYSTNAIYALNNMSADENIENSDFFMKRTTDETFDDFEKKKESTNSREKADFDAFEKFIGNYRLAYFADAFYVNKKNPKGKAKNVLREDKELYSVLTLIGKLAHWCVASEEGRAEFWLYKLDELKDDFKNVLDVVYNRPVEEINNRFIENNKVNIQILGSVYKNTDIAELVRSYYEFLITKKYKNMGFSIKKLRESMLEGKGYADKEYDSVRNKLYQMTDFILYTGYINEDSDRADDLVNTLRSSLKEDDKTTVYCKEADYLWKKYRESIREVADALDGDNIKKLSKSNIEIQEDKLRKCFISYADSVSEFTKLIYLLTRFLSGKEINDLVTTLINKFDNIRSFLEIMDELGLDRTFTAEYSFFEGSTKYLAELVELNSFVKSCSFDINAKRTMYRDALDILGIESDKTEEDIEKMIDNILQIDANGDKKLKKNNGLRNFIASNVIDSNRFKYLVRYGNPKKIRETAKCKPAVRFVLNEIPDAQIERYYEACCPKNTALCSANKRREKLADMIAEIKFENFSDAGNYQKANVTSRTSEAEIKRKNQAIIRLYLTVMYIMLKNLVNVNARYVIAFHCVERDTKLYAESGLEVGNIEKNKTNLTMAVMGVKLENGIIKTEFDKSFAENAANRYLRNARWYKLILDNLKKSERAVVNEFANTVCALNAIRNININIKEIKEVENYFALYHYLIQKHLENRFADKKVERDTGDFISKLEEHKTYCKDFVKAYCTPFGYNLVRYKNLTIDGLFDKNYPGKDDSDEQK

B1: target 1 insC 3' of 18,insA 3' of 7 (mixed)
RNA 1: CACCCGUGCAAAAAUGCAGGGGUCUAAAACUGAGCGGAUAACCUCUCUAUGG
RNA 2: GGGAAUGGAUCCACAUCUACGAAUUCGUACCAUACGAGAGGUUAUCACGCUCACCGAGAUCGGAAGAGCACACGU
B2: target 1 insC 3' of 8,insA 3' of 8 (mixed)
RNA 1: B1 RNA 1
RNA 2: GGGAAUGGAUCCACAUCUACGAAUUCGUACCAUAGAGAGGUUAUCACCGCUCACCGAGAUCGGAAGAGCACACGU
B3: target 1 insC 3' of 13,insA 3' of 13 (mixed)
RNA 1: B1 RNA 1
RNA 2: B2 RNA 2 with G40C, U41A, U42G, A43U, C45A, A46U
B4: target 1 insU 3' of 14,insU 3' of 9 (mixed)
RNA 1: B1 RNA 1
RNA 2: B2 RNA 2 with G39U, U41G, A43U, U44A, C45U, A46U
B5: target 3 insU 3' of 3,insG 3' of 1 (mixed)
RNA 1: CACCCGUGCAAAAUUGCAGGGGUCUAAAACGACCUGAAUAUUUCAGAUCAAA
RNA 2: GGGAAUGGAUCCACAUCUACGAAUUCGUUUUUGAUCUGAAAUAUUCAGGUUCGUGCAGAUCGGAAGAGCACACGU
B6: target 3 C1U,U7G (mixed)
RNA 1: B5 RNA 1
RNA 2: GGGAAUGGAUCCACAUCUACGAAUUCGUUUUUGAUCUGAAAUAUGCAGGUUUGCAGAUCGGAAGAGCACACGU
B7: target 3 insA 3' of 7,insG 3' of 5 (mixed)
RNA 1: B5 RNA 1
RNA 2: B5 RNA 2 with C46A, A47C, G48A, U50G, U51G, C52U, G53C
B8: target 3 insU 3' of 3,insU 3' of 1 (mixed)
RNA 1: B5 RNA 1
RNA 2: B5 RNA 2 with G53U
B9: target 3 insA 3' of 10 (mixed)
RNA 1: B5 RNA 1
RNA 2: GGGAAUGGAUCCACAUCUACGAAUUCGUUUUUGAUCUGAAAUAAUUCAGGUCUGCAGAUCGGAAGAGCACACGU
B10: target 3 complement block 1-7 (mixed)
RNA 1: B5 RNA 1
RNA 2: B6 RNA 2 with G45A, C46G, A47U, G48C, G49C, U50A, U51G
B11: target 3 U7G (mixed)
RNA 1: B5 RNA 1
RNA 2: B6 RNA 2 with U51C
B12: target 3 U2C,A11C (mixed)
RNA 1: B5 RNA 1
RNA 2: B6 RNA 2 with A41C, G45U, U50C, U51C
B13: target 3 A11C,U15C (mixed)
RNA 1: B5 RNA 1
RNA 2: B6 RNA 2 with U37C, A41C, G45U, U51C
B14: target 3 C6G (mixed)
RNA 1: B5 RNA 1
RNA 2: B6 RNA 2 with G45U, C46G, U51C
B15: target 3 insU 3' of 22,insU 3' of 19 (mixed)
RNA 1: B5 RNA 1
RNA 2: GGGAAUGGAUCCACAUCUACGAAUUCGUUUUUUGUAUCUGAAAUAUUCAGGUCUGCAGAUCGGAAGAGCACACGU
B16: target 3 insG 3' of 7,insA 3' of 3 (mixed)
RNA 1: B5 RNA 1
RNA 2: B5 RNA 2 with C46G, A47C, G48A, U50G, U51A, C52U, G53C
B17: target 3 insA 3' of 7,insC 3' of 3 (mixed)
RNA 1: B5 RNA 1
RNA 2: B5 RNA 2 with C46A, A47C, G48A, U50G, U51C, C52U, G53C
B18: target 3 insC 3' of 5,insU 3' of 3 (mixed)
RNA 1: B5 RNA 1
RNA 2: B5 RNA 2 with G48C, U50G, C52U, G53C
B19: target 3 insA 3' of 21,insC 3' of 5 (mixed)
RNA 1: B5 RNA 1
RNA 2: GGGAAUGGAUCCACAUCUACGAAUUCGUUUUAUGAUCUGAAAUAUUCACGGUCUGCAGAUCGGAAGAGCACACGU
B20: target 3 G3C,A12G (mixed)
RNA 1: B5 RNA 1
RNA 2: B6 RNA 2 with A40G, G45U, G49C, U51C
B21: target 3 C6U,C16U (mixed)
RNA 1: B5 RNA 1
RNA 2: B6 RNA 2 with C36U, G45U, C46U, U51C
B22: target 3 C1U,G4C (mixed)
RNA 1: B5 RNA 1
RNA 2: B6 RNA 2 with G45U, G48C
B23: target 3 insC 3' of 4,insA 3' of 4 (mixed)
RNA 1: B5 RNA 1
RNA 2: B5 RNA 2 with G49C, U50A, U51G, C52U, G53C
B24: target 3 U7C,U22A (mixed)
RNA 1: B5 RNA 1
RNA 2: B6 RNA 2 with U30A, G45C, U51C
B25: target 3 insA 3' of 22,insC 3' of 3 (mixed)
RNA 1: B5 RNA 1
RNA 2: B19 RNA 2 with U31A, A32U, C49G, G51C
B26: target 3 insA 3' of 21,insA 3' of 21 (mixed)
RNA 1: B5 RNA 1
RNA 2: B15 RNA 2 with U32A, U33A, G34U, U35G
B27: target 3 insC 3' of 22,insU 3' of 4 (mixed)
RNA 1: B5 RNA 1
RNA 2: B19 RNA 2 with U31C, A32U, C49G, G50U
B28: target 3 insU 3' of 16,insG 3' of 1 (mixed)
RNA 1: B5 RNA 1
RNA 2: B5 RNA 2 with G38U, A39G, U42A, A43U, U44A, C46U, A47C, G48A, U50G
B29: target 3 insA 3' of 4,insG 3' of 2 (mixed)
RNA 1: B5 RNA 1
RNA 2: B5 RNA 2 with G49A, U50G, C52G, G53C
B30: target 3 insU 3' of 3,insA 3' of 1 (mixed)
RNA 1: B5 RNA 1
RNA 2: B5 RNA 2 with G53A
B31: target 3 insU 3' of 22,insA 3' of 4 (mixed)
RNA 1: B5 RNA 1
RNA 2: B19 RNA 2 with A32U, C49G, G50A

Where a chain is given by its changes, count along the chain named. In names and notes the source's numbering stands.

The series concerns the target T1, EsCas13d, nuclease-dead. Kind of series: crRNA (strand 1, pre-loaded); Mg2+; 40 mM Tris-HCl pH 7.5, 150 mM NaCl, 6 mM MgCl2, 1 mM DTT, 0.1% Tween-20, 0.2 mg/ml BSA; 25 C; 10 min per concentration, then washed. The conditions noted are these: tags: His6-TwinStrep-SUMO cleaved; N-terminal SNAP kept (SNAP-Surface 488); label: 3' end held by stalled T7 RNA polymerase.
Consider B1, for which the affinity, expressed as Kd, was 29 ± 1.6 nM. The molecule B2 returned a Kd of 9.9 ± 0.5 nM. Regarding B3, the Kd was determined as 17.2 ± 1.6 nM. The molecule B4 gave a Kd of 52 ± 9 nM. Turning to B5, the Kd was 37.4 ± 4.85 nM. On to B6, for which the Kd was roughly 40 nM.

B7 yielded a Kd of 42 ± 6.5 nM. B8 returned a Kd of 96 ± 24.5 nM.

Turning to B9, the Kd is 55.5 ± 13 nM. On to B10, for which the Kd is 57 ± 8.5 nM. With B11, the Kd turned out to be 47 ± 8 nM.

In turn, B12 showed a Kd of 54.5 ± 7.7 nM. B13 yielded a Kd of 50 ± 9 nM. Under B14 stands 20.4 ± 2.3 nM; under B15, 54 ± 14.5 nM.

B16 displayed a Kd of 38 ± 5.5 nM. B17 showed a Kd of 26.1 ± 2.35 nM. The molecule B18 had a Kd of 7.75 ± 0.6 nM.

As to B19, binding was put at a Kd of 69.5 ± 11.5 nM. Molecule B20 displayed a Kd of 100 ± 33 nM. Molecule B21 displayed a Kd of 84.5 ± 20 nM. The molecule B22 displayed a Kd of roughly 68.5 nM. In the case of B23, the Kd was found to be 21.8 ± 2.15 nM. In turn, B24 registered a Kd of 88.5 ± 21.5 nM. B25 gave a Kd of 15.1 ± 1.55 nM.

As to B26, the Kd is 29.8 ± 4.05 nM. B27: binding was characterised by a dissociation constant (Kd) of 8.75 ± 2.3 nM. In turn, B28 displayed a Kd of 45.5 ± 11.5 nM. B29 gave a Kd of 49 ± 7 nM.

B30 yielded a Kd of 76.5 ± 19.5 nM. The figure for B31 is 69.5 ± 15.5 nM.

What is called Kd is the concentration at which binding is half-saturated.
